Data from US10202584B2, “Red-shifted luciferase-luciferin pairs for enhanced bioluminescence” (The Regents of the University of California, priority 2016, dated 2019).

Test system: HEK 293T cells
Assay: Bioluminescence relative to FLuc with P2A bicistronic vectors in HEK 293T cells
Format: cell-based, Human
Settings: 10,000 HEK 293T cells, 30 μM substrates, first 2 min integrated
From the text: FIG. 12 is a panel examining the impact of luciferase protein levels on bioluminescence intensities. (12a) Western blot analysis of HEK 293T cells expressing luciferases with C-terminal c-Myc tags. The relative proteins levels quantified from individual bands are shown in parentheses. These enzymes were expressed at different levels but the differences were within 3-fold. […] Under this condition, two luciferases in the same vectors are expected to be expressed near-stoichiometrically.

B1: NanoLuc: luciferase engineered from a 19 kDa domain of Oplophorus luciferase (SEQ ID NO: 1) (protein)
chain: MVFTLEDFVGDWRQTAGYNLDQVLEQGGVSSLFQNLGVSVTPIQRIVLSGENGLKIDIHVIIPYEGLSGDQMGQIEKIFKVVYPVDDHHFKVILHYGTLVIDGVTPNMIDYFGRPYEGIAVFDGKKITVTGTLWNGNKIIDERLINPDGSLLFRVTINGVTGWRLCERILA
modifications: Engineered mutant of Oplophorus gracilirostris polypeptide
  bioluminescence relative to FLuc, P2A bicistronic vectors: Large bioluminescence enhancements
